This is an account of results in article PMC6888645, “Oligomerization Affects the Ability of Human Cyclase-Associated Proteins 1 and 2 to Promote Actin Severing by Cofilins” (International Journal of Molecular Sciences, 2019).

Some results are limits rather than exact numbers.

Series [1] concerns the molecule itself. Description: AUC; sedimentation velocity (SV-AUC), 50 µM protein, 20 °C, 50,000 rpm, absorbance at 280 nm, 20 mM Tris-HCl pH 8.0, SEDFIT c(S) model; buffer (Tris-HCl vs PBS) and salt did not affect the oligomerization state.
The target in series [2] is F-actin (skeletal muscle actin, polymerised) ( (rabbit or chicken skeletal …, UniProt P68135 1-377)). As to the kind of experiment: cell-based or functional assay.

B1: N-CAP2, N-terminal fragment of human cyclase-associated protein 2 (original coiled coil and helical folded domain) (domain or fragment, UniProt P40123 1-220, looked up)
chain: MANMQGLVERLERAVSRLESLSAESHRPPGNCGEVNGVIAGVAPSVEAFDKLMDSMVAEFLKNSRILAGDVETHAEMVHSAFQAQRAFLLMASQYQQPHENDVAALLKPISEKIQEIQTFRERNRGSNMFNHLSAVSESIPALGWIAVSPKPGPYVKEMNDAATFYTNRVLKDYKHSDLRHVDWVKSYLNIWSELQAYIKEHHTTGLTWSKTGPVASTVS
notes: cyclase-associated protein 2 (CAP2), human; N-terminal coiled coil (a.a. 1-29) followed by the helical folded domain (HFD); Cloned in pET21b; 30-220, so this construct probably ends at 220 (surmised); also called CAP2 tetramer; not shown: 6xHis, C-terminal, kept
One may read the stoichiometry N as the number of molecules, sites or subunits per partner or assembly. For the molecule B1, the “stoichiometry N” value in series [1] was found to be 4.

B2: N-CAP1, N-terminal fragment of human cyclase-associated protein 1 (original coiled coil and helical folded domain) (domain or fragment, UniProt Q01518 1-220, looked up)
chain: MADMQNLVERLERAVGRLEAVSHTSDMHRGYADSPSKAGAAPYVQAFDSLLAGPVAEYLKISKEIGGDVQKHAEMVHTGLKLERALLVTASQCQQPAENKLSDLLAPISEQIKEVITFREKNRGSKLFNHLSAVSESIQALGWVAMAPKPGPYVKEMNDAAMFYTNRVLKEYKDVDKKHVDWVKAYLSIWTELQAYIKEFHTTGLAWSKTGPVAKELSGL
notes: cyclase-associated protein 1 (CAP1), human; N-terminal coiled coil (a.a. 1-29) followed by the helical folded domain (HFD); Cloned in pET21b; also called CAP1 tetramer; not shown: 6xHis, C-terminal, kept
Consider B2, for which the “stoichiometry N” value in series [1] was found to be 4. In addition, the “potentiation of F-actin severing by 50 nM CFL1 with 750 nM N-CAP construct, single filaments by TIRF microscopy, against CFL1 alone” value in series [2] is more than 2.5 fold.
